Values quoted from earlier work as cited in article PMC5257200.

Biological target: His19 (UniProt position 19, ILSALHFMAWT)
Settings: Membrane-bound peptide

In the case of “Influenza B virus M2 protein peptide BM2(3–33) (Influenza B virus (strain not stated for this construct))”, the pKa is given as roughly 6.5.
